Literature values, collected in article PMC5691641.

Molecular target: Bax (Homo sapiens) (UniProt Q07812)
Sequence (Q07812 whole entry): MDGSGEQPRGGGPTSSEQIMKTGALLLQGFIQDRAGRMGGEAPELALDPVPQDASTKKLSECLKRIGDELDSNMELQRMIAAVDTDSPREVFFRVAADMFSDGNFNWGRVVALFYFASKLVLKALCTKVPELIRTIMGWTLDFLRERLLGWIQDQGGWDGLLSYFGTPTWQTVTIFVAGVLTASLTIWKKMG

Sequence of vMIA (P16778 23-487): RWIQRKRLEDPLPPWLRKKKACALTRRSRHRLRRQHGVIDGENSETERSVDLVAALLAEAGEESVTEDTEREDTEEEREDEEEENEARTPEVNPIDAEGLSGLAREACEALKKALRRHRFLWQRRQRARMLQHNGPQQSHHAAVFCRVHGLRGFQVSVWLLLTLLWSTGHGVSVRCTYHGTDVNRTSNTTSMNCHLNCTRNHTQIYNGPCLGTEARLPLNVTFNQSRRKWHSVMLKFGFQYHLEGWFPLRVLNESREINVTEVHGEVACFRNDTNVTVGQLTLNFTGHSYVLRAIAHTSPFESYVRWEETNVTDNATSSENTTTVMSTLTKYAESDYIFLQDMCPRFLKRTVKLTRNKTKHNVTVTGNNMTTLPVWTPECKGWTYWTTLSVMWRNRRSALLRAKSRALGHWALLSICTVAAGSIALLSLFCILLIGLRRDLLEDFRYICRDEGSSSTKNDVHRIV

vMIA (from UniProt P16778)
Kd: 22 nM
